Measurements reported in PMC3612083, “Imaging Beads-Retained Prey Assay for Rapid and Quantitative Protein-Protein Interaction” (PLoS ONE, 2013).
One block for each binder: values may come before it. No end group written: not given here.

Experiments:
[1] = target: T1, GST-GRIP Y2177A (Golgin245 GRIP Y2177A in pGEB) (UniProt Q13439 2168-2215, Y2177A); test: pull-down; imaging beads-retained prey (IBRP) assay: GST-bait on glutathione beads (16 µg/µl), HEK293 lysate with GFP-prey, 100 µM GMPPNP; 30 min at 4°C, washes with 300 mM NaCl, bead fluorescence imaged; GFP lysate as control; settings: one partner purified
T1 construct: GRIP domain of Golgin245 with Y2177A; insert moved from the pEGFP-C2 construct by EcoRI/BamHI into pGEB; pGEB is a modified pGEX-KG vector; also called Y2177A mutant
T1 chain (looked up): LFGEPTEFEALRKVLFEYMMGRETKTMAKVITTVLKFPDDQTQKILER

GST-Arl1 = target: T2, GST-Arl1 (UniProt P61212 1-181); test: pull-down; IBRP assay: GST-Arl1 on glutathione beads (13 µg/µl) loaded with GMPPNP, HEK293 lysate with GFP-prey; bead fluorescence imaged; settings: one partner purified
T2 construct: Arl1; also called Arl1-GMPPNP; source: loaded with GMPPNP or GDP on the beads
T2 sequence (looked up): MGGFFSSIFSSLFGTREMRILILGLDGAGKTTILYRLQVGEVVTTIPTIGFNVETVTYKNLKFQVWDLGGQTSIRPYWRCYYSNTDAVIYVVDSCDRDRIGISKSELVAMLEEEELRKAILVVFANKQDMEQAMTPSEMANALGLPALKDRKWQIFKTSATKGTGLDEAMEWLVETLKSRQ

fold reduction of the interaction (IBRP affinity) against wild type GST-GRIP [1]: > 14 fold
B1: Arl1-GFP (wild type rat Arl1 in pEGFP-N1) (natural protein, UniProt P61212 1-181, looked up)
chain: MGGFFSSIFSSLFGTREMRILILGLDGAGKTTILYRLQVGEVVTTIPTIGFNVETVTYKNLKFQVWDLGGQTSIRPYWRCYYSNTDAVIYVVDSCDRDRIGISKSELVAMLEEEELRKAILVVFANKQDMEQAMTPSEMANALGLPALKDRKWQIFKTSATKGTGLDEAMEWLVETLKSRQ
notes: Arl1, ARF family small GTPase, rat, wild type; source: HEK293, transfected, in lysate

relative IBRP affinity with GMPPNP, fold of that with GDP (GST-Arl1): 3 fold
B2: GFP-GRIP (Golgin245 GRIP domain wild type in pEGFP-C2) (domain or fragment, UniProt Q13439 2168-2215, looked up)
chain: {GFP}-LFGEPTEFEYLRKVLFEYMMGRETKTMAKVITTVLKFPDDQTQKILER
notes: GRIP domain of Golgin245; source: HEK293, transfected, in lysate

fold reduction of relative IBRP affinity against wild type GRIP domain (GST-Arl1): ~80 fold
B3: GFP-GRIP (Y2177A) (Golgin245 GRIP domain Y2177A mutant in pEGFP-C2) (domain or fragment, UniProt Q13439 2168-2215, looked up)
chain: {GFP}-LFGEPTEFEALRKVLFEYMMGRETKTMAKVITTVLKFPDDQTQKILER
notes: GRIP domain of Golgin245 with Y2177A; source: HEK293, transfected, in lysate
